In the Immune Epitope Database (IEDB):

How the values were obtained:
[1] = biological target: HLA-B*07:02; test: IEDB peptide-MHC binding, purified MHC/direct/fluorescence; filed as Kd, often an IC50 or EC50 that approximates it; ≥ and ≤ were set here for values at or beyond the usual limits of such assays; conditions: source organism: Bacillus anthracis
[2] = biological target: HLA-B*15:02; test: as above; conditions: source organism: Bacillus cereus 03BB108
[3] = biological target: HLA-A*02:01; test: as above; conditions: source organism: Bacillus anthracis
[4] = biological target: HLA-A*01:01; test: as above; conditions: source organism: Bacillus anthracis
[5] = biological target: HLA-B*58:01; test: as above; conditions: source organism: Bacillus anthracis
[6] = biological target: HLA-B*15:17; test: as above; conditions: source organism: Bacillus anthracis
[7] = biological target: HLA-B*46:01; test: as above; conditions: source organism: Bacillus anthracis
[8] = biological target: HLA-A*11:01; test: as above; conditions: source organism: Bacillus anthracis
[9] = biological target: HLA-B*27:05; test: as above; conditions: source organism: Bacillus anthracis
[10] = biological target: HLA-B*48:01; test: as above; conditions: source organism: Bacillus anthracis
[11] = biological target: HLA-A*26:01; test: as above; conditions: source organism: Bacillus cereus 03BB108
[12] = biological target: HLA-B*35:01; test: as above; conditions: source organism: Bacillus cereus 03BB108
[13] = biological target: HLA-A*03:01; test: as above; conditions: source organism: Bacillus anthracis
[14] = biological target: HLA-B*08:03; test: as above; conditions: source organism: Bacillus cereus 03BB108
[15] = biological target: HLA-A*69:01; test: as above; conditions: source organism: Bacillus anthracis
[16] = biological target: HLA-B*15:01; test: as above; conditions: source organism: Bacillus anthracis
[17] = biological target: HLA-A*31:01; test: as above; conditions: source organism: Bacillus anthracis
[18] = biological target: HLA-B*57:01; test: as above; conditions: source organism: Bacillus anthracis
[19] = biological target: HLA-A*68:02; test: as above; conditions: source organism: Bacillus anthracis
[20] = biological target: HLA-A*26:02; test: IEDB peptide-MHC binding, purified MHC/competitive/fluorescence; filed as Kd, often an IC50 or EC50 that approximates it; ≥ and ≤ were set here for values at or beyond the usual limits of such assays; conditions: source organism: Bacillus anthracis str. A0488
[21] = biological target: HLA-B*39:01; test: as above; conditions: source organism: Bacillus anthracis str. A0488
[22] = biological target: HLA-B*15:09; test: as above; conditions: source organism: Bacillus anthracis str. A0488

With SQMPPQKIM the Kd [1] was no less than 20 µM, the Kd [2] was 0.022 µM and the Kd [3] was no less than 20 µM. For the same sequence, the Kd [4] was no less than 20 µM, the Kd [5] was no less than 20 µM and the Kd [6] was no less than 20 µM. The Kd [7] was no less than 20 µM, the Kd [8] was no less than 20 µM and the Kd [9] was no less than 20 µM. For the same sequence, the Kd [10] was 3.67 µM, the Kd [11] was no less than 20 µM and the Kd [12] was 0.661 µM. It also gave a Kd [13] of no less than 20 µM, a Kd [14] of no less than 20 µM and a Kd [15] of no less than 20 µM. It also gave a Kd [16] of 0.125 µM, a Kd [17] of no less than 20 µM and a Kd [18] of no less than 20 µM. For the same sequence, the Kd [19] was no less than 20 µM, the Kd [20] was no less than 20 µM and the Kd [21] was 3 µM. The Kd [22] was 0.283 µM.
